Measured values taken from US20230257435A1, “Wound Healing Composition and Uses Thereof” (AGENCY FOR SCIENCE, TECHNOLOGY AND RESEARCH, priority 2020, published 2023).

Key:
[1] = system: phosphorylated myosin light chain (pMLC); test: Actomyosin cables / pMLC activation after wound scratch; type: cell-based, human
Experimental: Indicated cells post-manipulation were washed twice with cold Phosphate buffered saline (PBS) and lysed with cold 1% NP-40 lysis buffer supplemented with 1× protease inhibitor cocktail (Roche Applied Biosciences) for 15 mins at 4° C. The cell lysate was centrifuged at 13,000 rpm for 15 min. This was followed by protein estimation using Bradford reagent. Subsequently, […] of total protein was mixed with an equal volume of 2× Laemmli sample buffer and heated at 95° C. for 5 mins. This was followed by resolution with SDS-PAGE gel. The resolved proteins were transferred onto nitrocellulose membrane and blocked in 5% skimmed milk reconstituted in 1×PBS containing 0.1% Tween-20, and probed overnight with the respective primary antibody. The membrane was then washed with 1×PBS supplemented with 0.1% Tween-20: three times at 15 min intervals. This was followed by 1 h incubation in conjugated horseradish peroxidase HRP secondary antibody (Santa Cruz Biotechnology). Post-incubation, the blot was again washed three times as above and then overlaid with enhanced chemiluminescence (ECL) substrate (Pierce/Bio-Rad) and visualized on X-ray film by image processor or digitally by Chemidoc analyzer (Bio-Rad). The density of the various bands was quantified using the Image-J software.
Cells were cultured on eight-well chamber slides or coverslips over-night. Cells were then washed twice with PBS and fixed for 15 min with 4% paraformaldehyde. Subsequently, the cells were permeabilized for 15 min with 0.1% Triton X in Phosphate buffered saline containing 1 mM Ca^+2 and 1 mM Mg^+2 (PBSCM) at room temperature. The permeabilized cells were incubated with indicated antibodies in fluorescent dilution buffer (FDB) for 1-2 h at RT or overnight at 4° C., followed by 5 washes with PBSCM and incubation with secondary antibody; Alexa Fluor (Thermo Fisher Scientific) for 1 h at RT. Slides were again washed five times with PBSCM and mounted with Vectashield medium containing DAPI. The stained cells were then imaged by a Zeiss confocal microscope. The images were processed and analyzed by Zen blue software. Intensity measurements were acquired using tool selection parameter in image analysis within the Zen blue software.
A confluent monolayer of control and Agrin depleted cells in a 6-well plate was subjected to a unidirectional scratch using a 20 μl pipette tip. This was followed by washing with 1×PBS at room temperature and incubation in complete culture media at 37° C. and 5% CO2 with or without sAgrin used as indicated. Phase contrast images of the wound area were taken periodically at the indicated time-points. For some wound-healing migration assays, keratinocytes were cultured on either soft or stiff substrates within a stencil barrier (Nalge Nunc., Inc) for 18 h. Upon removal of the barrier, the cells were allowed to migrate and imaged using an Axiovert 200 inverted microscope at indicated time-points.

[2] = system: HaCaT cells; test: Traction force microscopy and PIV of collective migration; type: cell-based, human
Experimental: Substrate preparation—Two-part silicone elastomer, DOWSIL CY52-276 (Dow Inc.), is first mixed thoroughly in a 1:1 weight ratio. The mixture is then poured into a 35 mm glass-bottom culture dish (iwaki 3930-035, Asahi Techno Glass Corporation, Japan) placed on a level surface, to a thickness of ˜500 μm. After pre-curing overnight, the silicone coated culture dish is further baked for 2 hours at 80° C. to fully cure. To maximize subsequent microsphere attachment, the silicone film is pre-treated with (3-aminopropyl) triethoxysilane (A3648, Sigma-Aldrich). To silanize, a 1 ml solution containing 96% v/v, 2% v/v APTES and 1% v/v acetic acid (A6283, Sigma Aldrich) is added to the glass-bottom culture dish, covering the whole silicone film, and left for 10 minutes to react. The silicone film is then twice rinsed with 96% v/v ethanol and followed by a quick dip in Milli-Q water to remove all the solution: removing solution from the film this way is preferred over blow-drying with nitrogen gas because the latter may introduce dust to the surface which subsequently affects the uniformity of attached microsphere distribution. Following this, the culture-dish is baked at 80° C. for another 2 hours to promote siloxane bond formation. For the physisorption of fluorescent latex microspheres on to the silicone film, 6 μl of 100 nm orange fluorescent (540/560) carboxylate-modified microspheres (F8800, ThermoFisher Scientific) is first diluted in 10 ml of Milli-Q water and sonicated for 10 minutes. The diluted microspheres are then passed through a 0.22 μm filter directly into a 15 ml falcon tube containing 500 μl of 500 mM MES buffer, pH 6.0 (M3671, Sigma Aldrich). The microspheres are then sonicated again for 10 minutes before being added to cover the APTES silanized silicone film within the culture dish previously prepared. The solution was left for 5 minutes to allow the microspheres to attach. […] The stiffness of silicone substrates used for TFM were determined by atomic force microscopy as per previously established protocols as described in the section below. […]

[3] = Agrin depleted cells supplemented with sAgrin

B1: sAgrin: C-terminus recombinant Agrin fragment containing 8 amino acid 'Z8' insert and LG3 domain (SEQ ID NO: 7), His-tagged, expressed in E. coli (protein)
chain: DTLAFDGRTFVEYLNAVTESELANEIPVEKALQSNHFELSLRTEATQGLVLWSGKATERADYVALAIVDGHLQLSYNLGSQPVVLRSTVPVNTNRWLRVVAHREQREGSLQVGNEAPVTGSSPLGATQLDTDGALWLGGLPELPVGPALPKAYGTGFVGCLRDVVVGRHPLHLLEDAVTKPELRPCPTP
modifications: His tag
pMLC recruitment to wound edges ([1]; 10 μg/ml sAgrin 18 h): strong recruitment of pMLC to wound edges forming stable actomyosin cables | actomyosin cables in Agrin deprived cells ([1]; 10 μg/ml sAgrin 18 h, within 4 h post-wounding): restored | actomyosin cable network in MMP12 suppressed cells ([1]; MMP12 siRNA, 10 μg/ml sAgrin 18 h): did not restore actomyosin cable network | pMLC levels in MMP12 depleted keratinocytes ([1]; within 2 h post-wounding): unable to rescue the severely diminished pMLC levels | pMLC activation in Agrin depleted cells ([1]; within 2 h post-wounding, sAgrin pre-treatment): restored | traction force at migrating leading edge of MMP12 depleted keratinocytes ([2]; 10 μg/ml sAgrin 18-24 h): failed to induce sufficient traction force | collective traction stress at the leading front [2, 3]: significantly enhanced | coordinated velocity fields and fluidic collective migration (PIV) [2, 3]: significantly enhanced
